The record followed here is patent publication EP4424703A1.

The target of test [1] is human transferrin receptor-1 on human TfR-positive cells (SK-OV-3, hCMEC/D3) (human) (UniProt P02786). Kind of test: flow cytometry on SK-OV-3 cells, 600 nM Ztaq-ABD (negative control) co-incubated with 25 µg/mL Tf-488.
Test [2] shares this target. Kind of test: flow cytometry on SK-OV-3 cells, 200 nM Ztaq-ABD (negative control) co-incubated with 25 µg/mL Tf-488.

Chain of UniProt P02786 (P02786 whole entry): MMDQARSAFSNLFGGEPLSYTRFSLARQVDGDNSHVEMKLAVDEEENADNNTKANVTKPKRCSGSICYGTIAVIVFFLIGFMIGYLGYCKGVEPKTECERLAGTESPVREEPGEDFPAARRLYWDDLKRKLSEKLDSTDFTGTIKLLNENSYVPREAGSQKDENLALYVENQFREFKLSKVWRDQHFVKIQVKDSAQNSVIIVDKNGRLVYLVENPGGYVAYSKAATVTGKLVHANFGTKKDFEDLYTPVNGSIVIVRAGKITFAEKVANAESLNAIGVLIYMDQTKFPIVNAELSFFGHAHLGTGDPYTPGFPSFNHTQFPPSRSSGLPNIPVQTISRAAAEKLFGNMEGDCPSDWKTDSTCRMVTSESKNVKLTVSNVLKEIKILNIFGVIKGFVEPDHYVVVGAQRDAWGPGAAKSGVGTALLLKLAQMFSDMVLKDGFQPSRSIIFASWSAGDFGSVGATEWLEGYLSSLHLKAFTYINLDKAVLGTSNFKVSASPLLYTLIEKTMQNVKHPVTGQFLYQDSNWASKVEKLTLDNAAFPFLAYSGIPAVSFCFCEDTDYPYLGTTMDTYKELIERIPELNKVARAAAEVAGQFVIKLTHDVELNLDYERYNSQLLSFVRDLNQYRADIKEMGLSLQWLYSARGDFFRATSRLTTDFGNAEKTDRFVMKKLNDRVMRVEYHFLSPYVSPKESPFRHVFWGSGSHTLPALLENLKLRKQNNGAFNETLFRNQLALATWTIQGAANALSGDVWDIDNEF

Consider Ztaq-ABD (designed binder), for which the MFI 640/660 nm in test [1] came out at 3.69 MFI.

Take Ztaq-ABD: the MFI 640/660 nm in test [2] was 1.62 MFI.
